According to the supplement of paper PMC9112550, “Optimization of the antimicrobial peptide Bac7 by deep mutational scanning” (BMC Biology, 2022):

tested on: Escherichia coli TOP10; assay: shrunken log2 fold change of peptide-encoding DNA abundance (4.5 h post-induction vs induction); higher = less antimicrobial activity (less host growth inhibition); conditions: time post-induction: 4.5 h; library: site-saturation at positions 5, 18, 19, 20
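Further: peptides expressed intracellularly from a pBAD plasmid library in pooled LB shake-flask culture, induced with 0.3% L-arabinose, DNA abundance read by NGS, three biological replicates, DESeq2 with apeglm shrinkage.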

Row | Sequence | shrunken log2 fold change
1 | RRIRNRPPRLPRPRPRPQCQPRP | -0.0453
2 | RRIRMRPPRLPRPRPRPWIKPRP | 0.101
3 | RRIRPRPPRLPRPRPRPHYYPRP | -0.439
4 | RRIRLRPPRLPRPRPRPPGNPRP | 0.303
5 | RRIRNRPPRLPRPRPRPEGMPRP | 0.225
6 | RRIRGRPPRLPRPRPRPEGCPRP | 1.65
7 | RRIRYRPPRLPRPRPRPSCGPRP | -0.184
8 | RRIRYRPPRLPRPRPRPRMIPRP | -0.118
9 | RRIRCRPPRLPRPRPRPHPTPRP | -0.0382
10 | RRIRARPPRLPRPRPRPGMHPRP | 0.233
11 | RRIRCRPPRLPRPRPRPLNGPRP | -0.444
12 | RRIRDRPPRLPRPRPRPGHQPRP | 0.137
13 | RRIRARPPRLPRPRPRPSGFPRP | 0.0172
14 | RRIRTRPPRLPRPRPRPKFQPRP | 0.114
15 | RRIRTRPPRLPRPRPRPCSFPRP | -0.625
16 | RRIRNRPPRLPRPRPRPNFHPRP | -0.048
17 | RRIRARPPRLPRPRPRPYHEPRP | -0.167
18 | RRIRCRPPRLPRPRPRPPPQPRP | 1.34
19 | RRIRHRPPRLPRPRPRPEDVPRP | -0.00992
20 | RRIRDRPPRLPRPRPRPTIIPRP | -0.127
21 | RRIRSRPPRLPRPRPRPAKCPRP | 0.0862
22 | RRIRRRPPRLPRPRPRPSCVPRP | 0.259
23 | RRIRCRPPRLPRPRPRPDWIPRP | -0.159
24 | RRIRWRPPRLPRPRPRPKWMPRP | 0.242
25 | RRIRVRPPRLPRPRPRPPNIPRP | -0.475

Row | Sequence | shrunken log2 fold change
26 | RRIRWRPPRLPRPRPRPDLWPRP | 0.234
27 | RRIRPRPPRLPRPRPRPHNTPRP | -0.481
28 | RRIRRRPPRLPRPRPRPQNSPRP | -0.266
29 | RRIRTRPPRLPRPRPRPFMIPRP | -0.0265
30 | RRIRDRPPRLPRPRPRPNTWPRP | 0.23
31 | RRIRDRPPRLPRPRPRPMKGPRP | 0.0395
32 | RRIRHRPPRLPRPRPRPQHFPRP | 0.0728
33 | RRIRDRPPRLPRPRPRPIIGPRP | -0.193
34 | RRIRNRPPRLPRPRPRPAMNPRP | -0.000576
35 | RRIRNRPPRLPRPRPRPYKQPRP | -0.0495
36 | RRIRSRPPRLPRPRPRPSCAPRP | 0.0589
37 | RRIRWRPPRLPRPRPRPQLVPRP | 0.144
38 | RRIRCRPPRLPRPRPRPHNAPRP | -0.171
39 | RRIRQRPPRLPRPRPRPKSYPRP | -0.0861
40 | RRIRRRPPRLPRPRPRPKWGPRP | 1.2
41 | RRIRPRPPRLPRPRPRPKNMPRP | -0.436
42 | RRIRPRPPRLPRPRPRPVAPPRP | 0.411
43 | RRIRPRPPRLPRPRPRPPKVPRP | 0.122
44 | RRIRCRPPRLPRPRPRPRNLPRP | -0.222
45 | RRIRTRPPRLPRPRPRPNEWPRP | -0.0827
46 | RRIRYRPPRLPRPRPRPWCYPRP | -1.21
47 | RRIRLRPPRLPRPRPRPWEEPRP | -0.0678
48 | RRIRMRPPRLPRPRPRPLRWPRP | 1.32
49 | RRIRMRPPRLPRPRPRPECEPRP | 0.206
50 | RRIRNRPPRLPRPRPRPQHIPRP | -0.114

Row | Sequence | shrunken log2 fold change
51 | RRIRYRPPRLPRPRPRPETAPRP | 0.00332
52 | RRIRQRPPRLPRPRPRPHARPRP | -0.00608
53 | RRIRIRPPRLPRPRPRPCVQPRP | 1.47
54 | RRIRWRPPRLPRPRPRPSPAPRP | 0.348
55 | RRIRARPPRLPRPRPRPAVNPRP | 0.102
56 | RRIRYRPPRLPRPRPRPISGPRP | 0.0356
57 | RRIRCRPPRLPRPRPRPLNNPRP | -0.694
58 | RRIRCRPPRLPRPRPRPGAYPRP | -0.319
59 | RRIRRRPPRLPRPRPRPGEIPRP | 0.321
60 | RRIRLRPPRLPRPRPRPDWEPRP | 0.0332
61 | RRIRERPPRLPRPRPRPPLVPRP | -0.0197
62 | RRIRRRPPRLPRPRPRPLLWPRP | 0.421
63 | RRIRLRPPRLPRPRPRPTVIPRP | -0.059
64 | RRIRSRPPRLPRPRPRPCAYPRP | -0.431
65 | RRIRKRPPRLPRPRPRPTRCPRP | 0.876
66 | RRIRMRPPRLPRPRPRPSWVPRP | 0.051
67 | RRIRSRPPRLPRPRPRPMGAPRP | 0.188
68 | RRIRQRPPRLPRPRPRPQMLPRP | 0.0203
69 | RRIRQRPPRLPRPRPRPCTQPRP | -0.0306
70 | RRIRARPPRLPRPRPRPAFAPRP | 0.685
71 | RRIRDRPPRLPRPRPRPKTSPRP | 0.0412
72 | RRIRWRPPRLPRPRPRPYNNPRP | -0.991
73 | RRIRKRPPRLPRPRPRPKIAPRP | 0.35
74 | RRIRWRPPRLPRPRPRPMQCPRP | 0.0434
75 | RRIRFRPPRLPRPRPRPHYTPRP | -0.385
